Assay [1] deals with T1, 小鼠PD-L1 (全长, 表达于293F细胞 WBP315.293F.mPro1.C1) (mouse, UniProt Q9EP73 19-290).
T1 construct: whole, on cells; also called mouse PD-L1
The experiment in a line: flow cytometry on 293F cells expressing mouse PD-L1. Background: Flow cytometry measures light scatter and fluorescence of single cells or particles in a stream.

Assay [2] addresses T2, 人PD-L1 (全长, 表达于CHO-K1细胞 WBP315.CHO-K1.hPro1.C11) (human, UniProt Q9NZQ7 19-290).
T2 construct: whole, on cells; also called human PD-L1; hPD-L1
The experiment in a line: flow cytometry on CHO-K1 cells expressing human PD-L1.

T1 sequence (Q9EP73 19-290): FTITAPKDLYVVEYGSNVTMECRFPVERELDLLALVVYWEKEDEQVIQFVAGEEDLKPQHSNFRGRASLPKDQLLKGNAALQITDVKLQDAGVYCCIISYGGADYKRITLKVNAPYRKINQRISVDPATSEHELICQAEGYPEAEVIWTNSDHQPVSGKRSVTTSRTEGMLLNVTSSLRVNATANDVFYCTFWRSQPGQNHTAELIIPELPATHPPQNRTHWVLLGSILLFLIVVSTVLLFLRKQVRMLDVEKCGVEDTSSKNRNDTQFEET
T2 sequence (Q9NZQ7 19-290): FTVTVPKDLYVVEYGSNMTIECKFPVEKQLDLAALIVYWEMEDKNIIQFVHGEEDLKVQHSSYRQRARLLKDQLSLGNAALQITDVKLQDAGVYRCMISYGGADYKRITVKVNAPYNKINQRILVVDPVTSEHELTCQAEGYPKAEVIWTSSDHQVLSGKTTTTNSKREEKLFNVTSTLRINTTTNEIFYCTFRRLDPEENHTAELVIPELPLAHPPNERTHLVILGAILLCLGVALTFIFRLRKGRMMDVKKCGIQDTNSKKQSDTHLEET

B1: W3156-AP3R2-1A3-z12-hIgG1 (Fc fusion)
chain: EVQLVESGGGLVQPGGSLRLSCAASGHFSNLAVNWFRQAPGKERELVAGILWSGGSTFYADSVKGRFTISRGNAENMLYLQMNSLRAEDTAVYYCNTGTNWGQGTLVTVSS
notes: tested as hIgG1 format; also called 抗PD-L1 VHH抗体; 亲本抗体 (PD-L1 arm); not shown: hIgG1 part (hinge/Fc) of the VHH-hIgG1 format
As to B1, the binding result in assay [1] and in assay [2] was “binds” in each case.
